Assay results as given in paper PMC9733425 (Journal of structural biology, 2022).

Biological target: the molecule itself
Assay: SEC-MALS

B1: SAM1 domain of SASH1 (WT human SAM1::6xHis, residues 627-703) (domain or fragment, UniProt O94885 627-703, looked up)
chain: RRKGRPPQPKSVEDLLDRINLKEHMPTFLFNGYEDLDTFKLLEEEDLDELNIRDPEHRAVLLTAVELLQEYDSNSDQ
B1 was tested, and the “stoichiometry N” value was 4.
